According to US10000775B2, “Biosynthesis of 1-undecene and related terminal olefins” (The Regents of the University of California, priority 2013, dated 2018):

Legend:
[1] = system: E. coli; assay: 1-undecene production in E. coli overexpressing PFL_4321, PFL_0203 or homologs, with or without UcFatB2; type: cell-based; conditions: E. coli BL21 Star (pZR60), headspace GC-MS
Experimental: E. coli, P. aeruginosa PAO-1, and P. aeruginosa PA14 strains were grown in 5 mL of LB medium overnight at 37° C., while all the other Pseudomonas and Acinetobacter strains were grown at 30° C. […] The culture was shaken in a sealed 20 mL headspace vial (Agilent certified) containing a stir bar at 30° C. for 36 hr. After incubation, an SPME fiber (30 μm polydimethylsiloxane, Supelco, Sigma-Aldrich Group, Bellefonte, Pa.) was manually inserted into the headspace vial and incubated at 25° C. for 12.5 min. GC-MS analysis was conducted on a Varian CP-3800 instrument equipped with a Varian 320-MS. […] The signals of the 1-alkenes were identified and quantified by comparison with authentic samples (MP Biomedicals), which were diluted in ethyl acetate, added to 5 mL of culture medium in a sealed headspace vial, and sampled by the same SPME-GCMS method as described above.
[…] 1-Undecene production was detected by using the SPME-GCMS method. […]
To investigate whether PFL_0203 was facilitating the production of 1-undecene, this gene was individually expressed in E. coli and the cells were monitored for 1-undecene production. […]

[2] = In vitro anaerobic enzymatic assays; type: biochemical
Experimental: FIG. 6 illustrates GC-MS detection of 1-undecene production by PFL_4321 in the aerobic/anaerobic assays. The anaerobic assay was performed by using the anaerobically purified enzyme and degassed reagents, adding glucose oxidase/glucose/catalase, and conducting the experiment in an anaerobic chamber with ppm O2<0.7. The control aerobic assay was performed by using a similar reaction mixture under ambient air conditions and omitting glucose oxidase.
All of the reagents were bubbled with nitrogen gas and equilibrated in the anaerobic chamber overnight before use. E. coli BL21 Gold (DE3, pZR60_HRV3c) was grown, harvested, and lysed as mentioned above. The insoluble fraction was removed by centrifugation, and the soluble proteins were incubated with 1 mL of Ni-NTA beads (Qiagen) on a nutator at 4° C. for 1 hr. The proteins were then moved into the anaerobic chamber, loaded onto a gravity flow column, washed with washing buffer (50 mM imidazole, 20 mM Tris, 300 mM NaCl, pH 8.5), and eluted with eluting buffer (300 mM imidazole, 20 mM Tris, 300 mM NaCl, pH 8.5). Purified proteins were exchanged into 20 mM Tris (pH 8.5) and 300 mM NaCl by passing through a desalting column (GE Disposable PD-10), and then concentrated using Amicon Centrifugal Filter Units. The protein solution was equilibrated in the anaerobic chamber on a Thermomixer at 4° C. overnight. […]

B1: PFL_4321: protein of 261 amino acids from Pseudomonas fluorescens Pf-5; non-heme iron (II)-dependent enzyme converting medium-chain fatty acids into terminal olefins (protein, listed as Pseudomonas fluorescens)
chain: MIDTFSRTGPLMEAASYPAWTQQLIQDCSESKRRVVEHELYQRMRDNKLSAKVMRQYLIGGWPVVEQFALYMAQNLTKTRFARHPGEDMARRWLMRNIRVELNHADYWVHWSRAHGVTLEDLQAQQVPPELHALSHWCWHTSSADSLIVAIAATNYAIEGATGEWSALVCSNGIYAAAFPEEDRKRAMKWLKMHAQYDDAHPWEALEIIVTLAGLNPTKALQAELRQAICKSYDYMYLFLERCMQQEKTAVTRERLALAEG
With B1 the 1-undecene produced [1] was about 5 µg/mL, the “1-undecene production in anaerobic enzymatic assays” value ([2]; anaerobic) was “nearly abolished” and the “decrease of 1-undecene production in anaerobic enzymatic assays” value ([2]; anaerobic versus aerobic) was “more than 150 fold”.
